In this test the target is T1, BS69 coiled-coil MYND domain (BS69_(CC-MYND), amino acids 480-602) (human, UniProt Q15326 480-602).
T1 chain: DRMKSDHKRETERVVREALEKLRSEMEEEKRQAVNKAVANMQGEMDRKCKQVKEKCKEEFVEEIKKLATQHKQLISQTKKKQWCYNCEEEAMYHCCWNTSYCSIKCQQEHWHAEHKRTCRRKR
Briefly: ITC. Background: Isothermal titration calorimetry measures the heat released or taken up as one component is titrated into another.

B1: type 1 EBNA2 polypeptide T1 EBNA2_(381-455) (domain or fragment)
chain: SMPELSPVLGLHQGQGAGDSPTPGPSNAAPVCRNSHTATPNVSPIHEPESHNSPEAPILFPDDWYPPSIDPADLD
As usually defined, the Kd is the constant that tells how readily two partners part at equilibrium. For the molecule B1, binding was put at a Kd of 730 nM.

The record behind these values is PMC6638984 (2019).
